Reference: patent US6991794B1, “Progenitor cell preservation factors and methods for and products of their use” (ImClone Systems Incorporated, priority 1997, dated 2006)
Like-named read-outs stand apart in the source and are kept apart here.

Molecular target: T1, murine extracellular domain of the Flt3 receptor fused to the transmembrane and intracellular domains of the human Fms (UniProt P07333+Q00342, A795S/A899S/C564L/C654D/C793H/C831G/D601N/D652H/D673E/D898N/DEL545-556/DEL576-597/DEL711-780/E609N/E612Q/E649S/E789R/E803A/E806A/E865D/F571P/F692T/F788L/F807S/G637D/G866C/H565Y/H671Q/H824N/I560L/I563L/I633L/I640L/I867V/I870V/INS558VACMSIMALLLL/INS573QVRWKII/INS599GNSYTFIDPTQLP/INS709AMLGPSLSPGQDPEGGVDYKNIHLEKKYVRRDSGFSSQGVDTYVEMRPVSTSSNDSFSEQDLD/K569Q/K650T/K800Q/K826H/K871Q/L602E/L684H/L690V/L783G/L815V/L840M/L863I/M626V/M665I/N627E/N784R/N900K/P896L/Q570K/Q641K/R572K/R624K/R708A/R848K/S619A/S634G/S639V/S653A/S685G/S706R/S809N/S841N/S844N/T636E/T667S/T787E/V561L/V616T/V638A/V785P/V811I/V822L/V828A/V846I/V889L/Y631F/Y689L/Y703F/Y796S)
T1 construct: consisting of the murine extracellular domain of the Flt3 receptor fused to the transmembrane and intracellular domains of the human Fms; expressed in transfected cells; host or cells: NIH 3T3 (mFlt3/Fms 3T3 cell line, provided by Dr. Ihor Lemischka)
T1 sequence (Q00342+P07333 with tags, fused parts or gaps Q00342:DEL545-556/Q00342:INS558VACMSIMALLLL/Q00342:I560L/Q00342:V561L/Q00342:I563L/Q00342:C564L/Q00342:H565Y/Q00342:K569Q/Q00342:Q570K/Q00342:F571P/Q00342:R572K/Q00342:INS573QVRWKII/Q00342:DEL576-597/Q00342:INS599GNSYTFIDPTQLP/Q00342:D601N/Q00342:L602E/Q00342:E609N/Q00342:E612Q/Q00342:V616T/Q00342:S619A/Q00342:R624K/Q00342:M626V/Q00342:N627E/Q00342:Y631F/Q00342:I633L/Q00342:S634G/Q00342:T636E/Q00342:G637D/Q00342:V638A/Q00342:S639V/Q00342:I640L/Q00342:Q641K/Q00342:E649S/Q00342:K650T/Q00342:D652H/Q00342:S653A/Q00342:C654D/Q00342:M665I/Q00342:T667S/Q00342:H671Q/Q00342:D673E/Q00342:L684H/Q00342:S685G/Q00342:Y689L/Q00342:L690V/Q00342:F692T/Q00342:Y703F/Q00342:S706R/Q00342:R708A/Q00342:INS709AMLGPSLSPGQDPEGGVDYKNIHLEKKYVRRDSGFSSQGVDTYVEMRPVSTSSNDSFSEQDLD/Q00342:DEL711-780/Q00342:L783G/Q00342:N784R/Q00342:V785P/Q00342:T787E/Q00342:F788L/Q00342:E789R/Q00342:C793H/Q00342:A795S/Q00342:Y796S/Q00342:K800Q/Q00342:E803A/Q00342:E806A/Q00342:F807S/Q00342:S809N/Q00342:V811I/Q00342:L815V/Q00342:V822L/Q00342:H824N/Q00342:K826H/Q00342:V828A/Q00342:C831G/Q00342:L840M/Q00342:S841N/Q00342:S844N/Q00342:V846I/Q00342:R848K/Q00342:L863I/Q00342:E865D/Q00342:G866C/Q00342:I867V/Q00342:I870V/Q00342:K871Q/Q00342:V889L/Q00342:P896L/Q00342:D898N/Q00342:A899S/Q00342:N900K): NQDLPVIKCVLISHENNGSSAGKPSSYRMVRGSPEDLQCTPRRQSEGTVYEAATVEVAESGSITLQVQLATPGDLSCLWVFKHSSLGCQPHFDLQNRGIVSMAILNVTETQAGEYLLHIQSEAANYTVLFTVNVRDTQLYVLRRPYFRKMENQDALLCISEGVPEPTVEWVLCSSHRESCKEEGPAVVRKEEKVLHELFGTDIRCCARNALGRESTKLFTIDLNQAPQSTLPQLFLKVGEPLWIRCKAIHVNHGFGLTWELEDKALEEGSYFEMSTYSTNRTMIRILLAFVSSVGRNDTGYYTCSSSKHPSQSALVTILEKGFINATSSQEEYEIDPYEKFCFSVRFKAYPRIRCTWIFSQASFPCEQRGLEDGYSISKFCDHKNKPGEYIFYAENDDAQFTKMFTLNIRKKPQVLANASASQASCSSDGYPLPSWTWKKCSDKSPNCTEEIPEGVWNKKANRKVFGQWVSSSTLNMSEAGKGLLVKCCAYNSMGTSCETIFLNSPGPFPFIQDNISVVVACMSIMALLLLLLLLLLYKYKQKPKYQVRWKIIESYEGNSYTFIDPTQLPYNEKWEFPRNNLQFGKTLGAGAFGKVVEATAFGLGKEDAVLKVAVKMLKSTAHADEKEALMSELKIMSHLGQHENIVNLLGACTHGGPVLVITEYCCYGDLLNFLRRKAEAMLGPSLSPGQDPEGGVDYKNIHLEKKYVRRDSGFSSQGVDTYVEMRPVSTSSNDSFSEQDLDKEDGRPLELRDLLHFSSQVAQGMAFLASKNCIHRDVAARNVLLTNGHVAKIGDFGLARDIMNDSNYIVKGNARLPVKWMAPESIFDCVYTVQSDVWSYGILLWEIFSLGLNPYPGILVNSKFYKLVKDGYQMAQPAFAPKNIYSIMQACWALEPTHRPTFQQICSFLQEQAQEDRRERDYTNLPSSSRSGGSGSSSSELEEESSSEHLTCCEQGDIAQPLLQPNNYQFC
Assay: mFlt3/Fms 3T3 biological screening assay (XTT)
Type: cell-based
Description: A biological screening assay to search for novel stimulators of the Flt3 receptor was developed using NIH 3T3 cells transfected with expression vectors containing cDNA of murine and human Flt3 and the related Fms receptor. The mFlt3/Fms 3T3 cell line is a 3T3 cell line transfected with nucleic acid encoding a fusion protein consisting of the murine extracellular domain of the Flt3 receptor fused to the transmembrane and intracellular domains of the human Fms (provided by Dr. Ihor Lemischka, Princeton University, Princeton, N.J.). The Stk 3T3 cell line is a 3T3 cell line transfected with the full-length human Flt3 receptor (provided by Dr. Donald Small, Johns Hopkins University, Baltimore, Md.). The human FMS 3T3 cell line is a 3T3 cell line transfected with the full-length human Fms receptor (provided by Dr. Charles Sherr, Saint Jude Children's Research Hospital, Memphis, Tenn. Parent 3T3 cells were purchased from American Type Culture Collection (“ATCC”; Manassas, Va.). Receptor-transfected cells contained Neo resistance genes and were maintained in medium containing 750 µg/ml of G418 (Life Technologies, Rockville, Md.).
To create factor-dependence for receptor-transfected 3T3 cells, growth conditions were compromised to permit only ligands to rescue cells from death. To do this, 3T3 cell lines were assayed in 96 well plates (Becton Dickinson Labware, Lincoln Park, N.J.) containing 3,000 cells in 100 μL of serum-free medium consisting of 10% AIMV (Life Technologies) and 90% DMEM. In each experiment, samples were serially diluted two-fold across rows starting at a 1:10 dilution. Viable cells were quantitated after 3-5 days by XTT (2,3-bis[Methoxy-4-nitro-5sulfophenyl]-2H-tetrazolium-5 carboxanilide inner salt) (Sigma, St. Louis, Mo.) (Roehm et al., supra). Relative activity (units/ml) and specific activity (units/mg) are defined as the reciprocal dilution at which half-maximal stimulation of cells was detected.

B1: Pv-FRIL: FRIL family mannose-binding lectin from Phaseolus vulgaris (red kidney bean), SEQ ID NO: 6 (protein)
chain: AQSLSFNFTKFDLDQKDLIFQGDATSTNNVLQLTKLDSGGNPVGASVGRVLFSAPFHLWENSMAVSSFETNLTIQISTPHPYYAADGFAFFLAPHDTVIPPNSWGKFLGLYSNVFRNSPTSENQSFGDVNTDSRVVAVEFDTFPNANIDPNYRHIGIDVNSIKSKETARWEWQNGKTATARISYNSASKKSTVTTFYPGMEVVALSHDVDLHAELPEWVRVGLSASTGEEKQKNTIISWSFTSSLKNNEVKEPKEDMYIANVVRSYTWINDVLSYISNKMYDALNNNHKYVRCSTCMLFMKKK
response of mFlt3/Fms 3T3 cells: responded in a dose dependent manner | response of mFlt3/Fms 3T3 cells (presence of rhIL1): respond to FRIL in the presence of rhIL1
